In patent publication US20140120095A1 (Boehringer Ingelheim, published 2014):

Legend:
[1] = molecular target: T1, recombinant human DLL4 (human, UniProt Q9NR61 25-522); experiment: binding ELISA, coated rhDLL4
T1 construct: also called rhDLL4; hDLL4
Experimental: (§1) In order to determine cross-reactivity to mouse DII4 a binding ELISA is performed. […] Wells are blocked with a casein solution (1% in PBS). VHHs are applied as dilution series and binding is detected using a mouse anti-myc (Roche) and an anti-mouse-AP conjugate (Sigma, St Louis, Mo., USA) (FIG. 7 A-H). As reference, binding to human DII4 is measured.

[2] = molecular target: T2, recombinant mouse DLL4 (mouse, UniProt Q9JI71 27-532); experiment: binding ELISA, coated rmDLL4
T2 construct: extracellular domain; also called rmDLL4; mDLL4
T2 sequence (Q9JI71 27-532): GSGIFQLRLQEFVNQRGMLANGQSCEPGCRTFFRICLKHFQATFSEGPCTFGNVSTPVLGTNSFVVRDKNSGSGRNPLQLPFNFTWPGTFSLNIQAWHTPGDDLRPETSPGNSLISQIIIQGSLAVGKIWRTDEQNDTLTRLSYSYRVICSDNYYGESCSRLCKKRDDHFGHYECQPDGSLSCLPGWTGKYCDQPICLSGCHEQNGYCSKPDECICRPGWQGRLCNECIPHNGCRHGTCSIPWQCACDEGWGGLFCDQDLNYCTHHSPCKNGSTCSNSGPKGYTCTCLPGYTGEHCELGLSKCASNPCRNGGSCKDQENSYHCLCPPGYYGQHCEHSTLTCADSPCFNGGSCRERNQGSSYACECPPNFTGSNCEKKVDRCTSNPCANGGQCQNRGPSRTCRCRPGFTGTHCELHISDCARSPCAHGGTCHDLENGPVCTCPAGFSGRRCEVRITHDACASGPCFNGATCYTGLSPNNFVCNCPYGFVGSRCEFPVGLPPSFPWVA
Experimental: as §1

[3] = molecular target: T3, human DLL4 overexpressed on cells (human, UniProt Q9NR61 27-685); experiment: competitive FMAT, hNotch1-Fc on CHO-hDLL4
T3 construct: full length human DLL4 on CHO or HEK293 cells; also called CHO-hDLL4; CHO-hDII4

[4] = molecular target: T4, mouse DLL4 overexpressed on cells (mouse, UniProt Q9JI71 27-686); experiment: competitive FMAT, hNotch1-Fc on CHO-mDLL4
T4 construct: whole, on cells; also called CHO-mDLL4; CHO-mDII4
T4 sequence (Q9JI71 27-686): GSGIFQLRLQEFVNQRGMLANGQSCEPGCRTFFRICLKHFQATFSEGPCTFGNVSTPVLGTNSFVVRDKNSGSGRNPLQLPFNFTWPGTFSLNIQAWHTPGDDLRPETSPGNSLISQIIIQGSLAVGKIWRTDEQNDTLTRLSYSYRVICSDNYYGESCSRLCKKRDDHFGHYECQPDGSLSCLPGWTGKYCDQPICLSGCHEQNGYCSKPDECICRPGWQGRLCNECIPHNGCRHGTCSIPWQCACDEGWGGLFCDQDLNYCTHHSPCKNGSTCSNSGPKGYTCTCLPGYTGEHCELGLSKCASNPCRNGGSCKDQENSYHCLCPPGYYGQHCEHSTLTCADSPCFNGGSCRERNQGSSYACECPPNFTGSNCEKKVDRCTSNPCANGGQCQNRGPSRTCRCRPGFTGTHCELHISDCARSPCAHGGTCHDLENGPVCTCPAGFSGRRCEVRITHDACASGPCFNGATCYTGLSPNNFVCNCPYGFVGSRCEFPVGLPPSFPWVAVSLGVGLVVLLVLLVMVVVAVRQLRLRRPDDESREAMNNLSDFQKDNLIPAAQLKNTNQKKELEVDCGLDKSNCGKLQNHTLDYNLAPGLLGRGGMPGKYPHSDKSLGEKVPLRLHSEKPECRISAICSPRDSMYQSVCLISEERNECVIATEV

[5] = molecular target: T1, recombinant human DLL4; experiment: competition AlphaScreen, biot-hDLL4/hNotch1-Fc
Experimental: In brief, 1 nM biotinylated human DII4 is captured on streptavidin-coated donor beads (20 μg/mL), while 0.4 nM of the receptor human Notch1 (as a Fc fusion protein) is captured on anti-human Fc VHH-coated acceptor beads (20 μg/mL). Both loaded beads are incubated together with a dilution range of the competing VHH (FIG. 4 A-E).

[6] = molecular target: T3, human DLL4 overexpressed on cells; experiment: FACS titration on HEK293-hDLL4 cells, MCF
Experimental: (§2) In order to determine the cynomologus cross-reactivity of the VHHs, a FACS binding experiment is performed. Cynomolgus DII4 expressing HEK293 cells (transient or stable transfection) are used for a titration binding experiment of the VHHs. After a 30 minutes incubation on ice, all samples are washed and detection is performed by applying anti-c-myc˜Alexa647 (Santa Cruz Biotechnology, Santa Cruz, Calif., USA). Human and mouse DII4 overexpressing HEK293 cells are taken as reference. The mean MCF value is determined on the FACS Array and used for calculation of the EC₅₀ value (see FIG. 9 A-E).

[7] = molecular target: T5, cynomolgus DLL4 overexpressed on cells (cynomolgus, UniProt Q9NR61 27-685 (human entry)); experiment: FACS titration on HEK293-cDLL4 cells, MCF
T5 construct: also called cyno DII4; cDLL4
T5 chain: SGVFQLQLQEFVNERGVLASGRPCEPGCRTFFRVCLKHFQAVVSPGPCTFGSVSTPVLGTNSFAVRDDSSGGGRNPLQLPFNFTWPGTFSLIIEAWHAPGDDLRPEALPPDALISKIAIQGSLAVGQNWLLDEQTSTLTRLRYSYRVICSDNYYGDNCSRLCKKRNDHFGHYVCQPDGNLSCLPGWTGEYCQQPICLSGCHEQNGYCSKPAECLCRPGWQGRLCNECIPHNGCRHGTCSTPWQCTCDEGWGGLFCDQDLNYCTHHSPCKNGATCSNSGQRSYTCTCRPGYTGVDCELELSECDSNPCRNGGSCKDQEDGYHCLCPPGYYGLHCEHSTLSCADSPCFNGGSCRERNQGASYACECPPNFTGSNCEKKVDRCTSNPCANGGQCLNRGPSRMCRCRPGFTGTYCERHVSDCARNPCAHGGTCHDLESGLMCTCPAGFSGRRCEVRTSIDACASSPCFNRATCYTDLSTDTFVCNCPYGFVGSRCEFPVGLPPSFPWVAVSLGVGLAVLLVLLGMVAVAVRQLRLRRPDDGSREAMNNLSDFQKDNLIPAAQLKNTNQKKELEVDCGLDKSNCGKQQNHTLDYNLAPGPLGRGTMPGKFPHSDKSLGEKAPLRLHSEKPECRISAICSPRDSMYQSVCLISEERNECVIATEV
Experimental: as §2

[8] = molecular target: T1, recombinant human DLL4; experiment: competition ELISA, biot-hDLL4 to coated hNotch1-Fc
Description: Residual binding of biotinylated human DII4 is detected using horseradish peroxidase (HRP) conjugated extravidin (Sigma, St. Louis, Mo., USA) (FIG. 3 A-C). Human DII4 is biotinylated as described above.

[9] = molecular target: T6, human DLL1 (human, UniProt O00548 18-545, limits assumed); experiment: binding ELISA on coated recombinant human DLL1, OD 405 nm
T6 construct: also called hDLL1
T6 sequence (looked up): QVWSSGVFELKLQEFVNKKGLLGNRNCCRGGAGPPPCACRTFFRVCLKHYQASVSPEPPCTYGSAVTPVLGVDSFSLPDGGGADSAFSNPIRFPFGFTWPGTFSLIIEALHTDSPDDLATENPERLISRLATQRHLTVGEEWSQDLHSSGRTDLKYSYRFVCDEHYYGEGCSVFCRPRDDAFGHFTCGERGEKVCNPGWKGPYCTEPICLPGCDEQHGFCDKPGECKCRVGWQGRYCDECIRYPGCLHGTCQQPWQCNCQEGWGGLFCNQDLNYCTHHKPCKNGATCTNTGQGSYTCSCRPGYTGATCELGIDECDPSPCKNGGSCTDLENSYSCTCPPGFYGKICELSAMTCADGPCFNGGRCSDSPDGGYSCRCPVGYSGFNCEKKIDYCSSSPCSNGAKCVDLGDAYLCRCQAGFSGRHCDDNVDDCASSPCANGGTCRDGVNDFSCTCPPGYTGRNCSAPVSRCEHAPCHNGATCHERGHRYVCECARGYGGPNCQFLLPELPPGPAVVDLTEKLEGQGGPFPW
Experimental: (§3) Absence of binding to homologous ligands human DLL1 and human Jagged-1 is assessed via solid phase binding assay (ELISA). In brief, human DLL1 (Alexis, San Diego, Calif., USA) and human Jagged-1 (Alexis, San Diego, Calif., USA) are coated overnight at 4° C. at 1 μg/mL in a 96-well MaxiSorp plate (Nunc, Wiesbaden, Germany). Wells are blocked with a casein solution (1% in PBS). VHHs are applied as dilution series and binding is detected using a mouse anti-myc (Roche) and an anti-mouse-AP conjugate (Sigma, St. Louis, Mo., USA).

[10] = molecular target: T7, human Jagged-1 (human, UniProt P78504 34-1067, limits assumed); experiment: binding ELISA on coated recombinant human Jagged-1, OD 405 nm
T7 construct: also called hJagged-1; hJAG1
Experimental: as §3

[11] = molecular target: T1, recombinant human DLL4; experiment: SPR Biacore T100, hDLL4 on chip, VHH/Fab injected
Experimental: Kinetic analysis to determine the affinity of the DII4-VHH interaction is performed by Surface Plasmon Resonance (SPR) on a Biacore T100 instrument. […] Purified VHHs or Fab fragment are injected for 2 minutes at different concentrations (between 10 and 300 nM) and allowed to dissociate for 20 min at a flow rate of 45 μl/min. Between sample injections, the surfaces are regenerated with 10 mM glycine pH1.5 and 100 mM HCl. HBS-N (Hepes buffer pH7.4) is used as running buffer. If possible, data are evaluated by fitting a 1:1 interaction model (Langmuir binding) onto the binding curves. The affinity constant KD is calculated from resulting association and dissociation rate constants (kₐ) and […].

[12] = molecular target: T8, human DLL4, full length, overexpressed on cells (human, UniProt Q9NR61 27-685); experiment: FMAT, hNotch1-Fc on CHO-hDLL4, -HSA
T8 construct: CHO cells in FMAT, HEK293 cells in the reporter assay; also called hDLL4; CHO-hDLL4

[13] = molecular target: T9, mouse DLL4, full length, overexpressed on CHO cells (mouse, UniProt Q9JI71 27-686); experiment: FMAT, hNotch1-Fc on CHO-mDLL4, -HSA
T9 construct: whole, on cells; also called mDLL4; CHO-mDLL4

[14] = molecular target: T10, recombinant human VEGF165 (human, UniProt P15692-4 27-191, biotinylated in the competition assays); experiment: AlphaScreen, hVEGF165/hVEGFR1-Fc competition, -HSA
T10 construct: Bought protein; also called hVEGF165; rhVEGF165
T10 sequence (P15692 other isoform, or with tags, fused parts or gaps): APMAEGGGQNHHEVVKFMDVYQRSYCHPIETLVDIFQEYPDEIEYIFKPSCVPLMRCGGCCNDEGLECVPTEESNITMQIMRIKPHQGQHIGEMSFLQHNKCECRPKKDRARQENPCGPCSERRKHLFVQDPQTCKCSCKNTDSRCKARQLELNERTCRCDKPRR

[15] = molecular target: T10, recombinant human VEGF165; experiment: AlphaScreen, hVEGF165/hVEGFR2-Fc competition, -HSA

B1: DLLBII55D12 (VHH)
VHH: EVQLVESGGGLVQPGGSLRLSCAASGFTFDDYAIGWFRQAPGKEPEGISCISSSGGITYYADSVKGRFTISRDNAKNTVYLQMNSLKPEDTAVYYCATPGIAACRGIHYTGQGTQVTVSS
EC50 [1]: 13.1 nM
EC50 [2]: 30 nM
IC50 [3]: 39.1 nM
IC50 [4]: 41 nM
IC50 [5]: 2.3 nM
EC50 (read off the curve) [6]: ~7 nM
EC50 (read off the curve) [7]: ~6 nM
IC50 [8]: 12.3 nM
binding result [9]: no binding (tested: 2.5e-7 M)
binding result [10]: no binding (tested: 2.5e-7 M)

B2: DLLBII56H08 (VHH)
VHH: EVQLVESGGGLVQPGGSLRLSCAASGFTFDDYAIGWFRQAPGKEPEEISCISSSGGITYYADSVKGRFTISRDNAKNTVYLQMNSLKPEDTAVYYCATPGIAACRGIHYTGQGTQVTVSS
EC50 [1]: 4.1 nM
EC50 [2]: 8.7 nM
IC50 [3]: 22 nM
IC50 [4]: 33.7 nM
IC50 [5]: 1.6 nM
Kd [11]: 9.4 nM
koff [11]: 0.0011 s⁻¹
kon [11]: 120000 M⁻¹ s⁻¹
EC50 (read off the curve) [6]: ~7 nM
EC50 (read off the curve) [7]: ~4 nM
IC50 [8]: 6.9 nM
binding result [10]: no binding (tested: 2.5e-7 M)

B3: DLLBII56C04 (VHH)
VHH: EVQLVESGGGLVQPGGSLRLSCTASGFTFDVYAIGWFRQAPGKEPEGISCISSSGSITYYADSVKGRFTTSRDSAKNTVYLQMNSLKPEDTAVYYCATPGIAACRGIHYWGQGTQVTVSS
EC50 [1]: 44.3 nM
EC50 [2]: 244 nM
IC50 [3]: 28.7 nM
IC50 [4]: 49.6 nM
IC50 [5]: 5.4 nM
Kd [11]: 45 nM
koff [11]: 0.0049 s⁻¹
kon [11]: 110000 M⁻¹ s⁻¹
EC50 (read off the curve) [6]: ~6 nM
EC50 (read off the curve) [7]: ~6 nM
IC50 [8]: 33.9 nM
binding result [9]: no binding (tested: 2.5e-7 M)
binding result [10]: no binding (tested: 2.5e-7 M)

B4: DLLBII57C11 (VHH)
VHH: EVQLVESGGGLVQPGGSLRLSCTASGFTFDDYAIGWFRQAPGKEPEGISCISSSGSITYDADSVKGRFTISRDNAKNTVYLQMNSLKPEDTAVYYCATPGIAACRGIHYWGQGTQVTVSS
EC50 [1]: 7.9 nM
EC50 [2]: 83.4 nM
IC50 [3]: 53.9 nM
IC50 [4]: 49.5 nM
IC50 [5]: 2.2 nM
EC50 (read off the curve) [6]: ~10 nM
EC50 (read off the curve) [7]: ~10 nM
IC50 [8]: 17.3 nM
binding result [9]: no binding (tested: 2.5e-7 M)
binding result [10]: no binding (tested: 2.5e-7 M)

B5: A1 (bispecific antibody)
chain: VQLVESGGGLVQPGGSLRLSCAASGRTFSSYSMGWFRQAPGKEREFVVAISKGGYKYDAVSLEGRFTISRDNAKNTVYLQINSLRPEDTAVYYCASSRAYGSSRLRLADTYEYWGQGTLVTVSSGGGGSGGGGSGGGGCGGGGSGGGGSGGGGSGGGGSEVQLVESGGGLVQPGGSLRLSCAASGRTFSSYAMAWYRQAPGKEREYVAAIRWSGGTAYYADSVKGRFTISRDNAKNTVYLQMNSLRPEDTAVYYCANRAPDTRLAPYEYDHWGQGTLVTVSS
modifications: PEGylated at the Cys at position 15 of the 35 Gly-Ser linker
notes: VEGFBII038 (N-terminal E missing) - 35GS(Cys15) - DLLBII018
% inh [12]: 102%
IC50 [12]: 6.7 nM
% inh [13]: 100%
IC50 [13]: 3.4 nM
% inh [14]: 80%
IC50 [14]: 0.1 nM
% inh [15]: 100%
IC50 [15]: 0.07 nM

B6: DLLBII039 (VHH)
VHH: EVQLVESGGGLVQPGGSLRLSCAASGFTIGSYDMSWVRRAPGKGPEWVSSISSGGGSTYYADYVKGRFTISRDNAKNTLYLQMNSLRPEDTAVYYCAADRYIWARQGEYWGAYEYDYWGQGTLVTVSS
% inh [12]: 102%
IC50 [12]: 3.6 nM
% inh [13]: 100%
IC50 [13]: 6.7 nM
